From patent US20170101472A1

Assays:
[1] = target: HEK293-hLAG3 and HEK293-mfLAG3 cells; experiment: cell binding assay of Table 12, LAG3-expressing HEK293 cells against parental HEK293 cells
[2] = target: cynomolgus LAG3 on activated CD4+ and CD8+ cynomolgus T cells (cynomolgus); experiment: FACS, stimulated cynomolgus CD4+ T cells, donor 1

## H4H isotype control and the H4sH isotype control
[1]
  ratio of binding above the HEK293 parental cells: 0.7 to 1.1 fold

## hIgG4 isotype control (antibody)
[2]
  Ratio of MFI (11 nM/0 nM): 1
